Laboratory results reported in paper PMC4188031.

How the values were obtained:
Experiment in all cases: SPR (ProteOn XPR36, GLC chip), co-injection mode with pH shift
Conditions in all cases: pH 7.4; 25°C (stated for the immobilisation step; not restated for the binding runs); 150 mM NaCl (plus 20 mM Na-phosphate); PBS-TE: 20 mM Na-phosphate; association at pH 6.0, dissociation at pH 7.4
[1] = molecular target: B21M anti-RSV IgG1 N434Y N434Y (EU numbering) (UniProt P01857)
[2] = molecular target: B21M anti-RSV IgG1 N434A N434A (EU numbering) (UniProt P01857)
[3] = molecular target: B21M anti-RSV IgG1, wild-type Fc (mAb WT) (UniProt P01857)

off-rate (koff) after pH shift 6.0 to 7.4 [1]: 0.02 1/s | off-rate (koff) after pH shift 6.0 to 7.4 [2]: 0.09 1/s | off-rate (koff) after pH shift 6.0 to 7.4 [3]: 0.07 1/s
Substance: neonatal Fc receptor (rat FcRn, rFcRn)
